Experimental data as given in the domain aggregation screens of Martell et al. (2025).

experiment: soluble fraction after stress (log2 fold change); higher = more stays soluble; pooled small domains, quantitative proteomics; settings: stress: 50 degC
In short: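 Quantitative proteomics served as the high-throughput read-out for pooled custom libraries of small protein domains. Each was stressed at 50°C. Aggregation propensity is expressed as the base-two log fold change in soluble protein after stress. A higher value means a larger share of the protein remains in solution.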

Sequence	soluble fraction (log2)
HMGRPWRIGDVVNVSRPTGDGGGFTKGLITRIYPTTVQVTWNPDLQHARPWTTMEKKQYLIFVYHDDE	-2.86
HMYDDEELDVLAHRPIESYTDAELAMLREVAETLLETDYEGWLKSLSMRGILLPPEILQLVT	-0.049
HMNSKKETLLSYLYNHSTWSSRNDLSNFLNVSTRQVTNYINEINKNETIVLSSNKGYKINPKFIGKN	-0.611
HMDIGTRQRIIAAAMELFRQKGMDGMSMRELAERAGVNKGLLHYYFTTKEAIFREVFVHQVEM	-0.15
HMGVPTEQQSLIGKSGIAATDLRPSGKVEIDGKRYDAVSNYAGFIAKGTPISVVRYETGQIYVE	0.0415
HMSKYERVYTGSEINVNHLKSQLEDAGISSVVRNDHESAIRAGFGSDYDRGVLLFVEKDNLLRAKHIIEKT	0.0318
HMGGVIEDDRGQWAHPGEVTKINSNNITMKGVDFPVLGISDTGDKKMMQPGKDYKFDGNSVTEYPMA	-0.197
HMSMANKKDFILDTAQKLFMEQGFDQTSISQILEATQIARGTLYYYFSSKEEIMDAIIERTIEQ	-1.05
HMYKLTYVVDGEVYLEETVSYGSKIAAAPAPEKEGYTFSGWEGLPEVMPAKDVTVSGSFTVN	-0.405
HMFYQLTENQRRILSSLEQNPRVSAAHLAEEIGISSRKVENNLKKLKEIGLLQRHGSPRKGYWSINQGW	-0.623
HMSSHSAEAVRHRIKSMIDHEARDGDVLSDDRIVELLNQAGIDIARRTVAKYREALRIPSSVERKRRLKA	0.0377
HMRRADRLLQLIQILRRHRRPVTGDVMARELEVSLRTVYRDIATLTIEGVPIRGEAGVGYVLGEGY	-2.39
HMDYIGIQAAKEAALKDADISSEQAVFTMAELDNKNNIFYYQIMFTENGTEYRYDIDALTGVIIEKNHFF	-1.96
HMTGKASEIAALLEQRIAAGDYPAGSKLPSERELAASFHVSRNTIRDAIALLAARKIVSTKWGAGTVVLG	-0.139
HMQVPDLYRTLGVGRDATTEAIEAAYVGWQARLSAGEPISTQEWERLRYAHEVLSNPQRRSLYDSLVAET	0.0709
HMAPSIPSGADIRAAREAAGINLRDFARIVDGPGIAIWSRYETGTPIRVKSISPEVWQKVRDFISQHG	-0.826
HMVGLTDLQRNVLVQIARGKSRQLISRTLKVTPAEISAALKVAQRRYRVASSTEVIVQALYDKTLSFHEIM	-0.625
HMVEEVDYGTFMRMIEEKNIGKVEVRAGEIVFTDKDEKQIYKTGAMEDATLTQRLYESGAEFSKDV	0.0146
HMAENPAYTKGVVNRLYKIRATPYYSYSYNVDQKTYEGRGKQYGEYENLHIGDTITVYYQRSNPSNSEA	-0.414
HMASIEPLKTSIRIIWYINGEKDSETLLNTPPTAANKANAQKIADMVEQQIQMGIFNRDAVFPSSPKRQ	-1.87
HMITTEEVLNRIRKKVDHPATIRELQKALSIADDDRHRFRRRIRTLVASGALVRIRGNRYGLPSK	-0.275
HMDEIELLLQDAIQKLPEKQRMVFTLRYYDNLPYEEISKILDMSVSTLKTNYHYAKSKIEQYILDHS	-0.607
HMSTMNRLPRHEQILKLVRANGFMPIEELARLLDVTPQTIRRDINTLSEENLLRRFHGGAALGPSVE	-0.0842
HMAQILEPSVALKKLLELKQAGFEDETLVGWIRKVEFTRPLTPDDLLEWKGAGISQAVIRAAM	-0.0938
HMSFTDLILKSANAIDEMGGIWENGKQILGEKAIAIHEEIVDNGLNPDKDGFYKLANGQMIQYG	-0.000487
HMVAEPVYGKVTEGPLNVRSAPSTDSEKVDSFSTGKVLTILETLDGWYKVEEGYVSADYVTIIDAAEAASS	0.00408
HMGAPLAVGDSVRVVVSGPRAFVYTAPNGALSGAVRNGAAFTVLELSPDNTWARIGSGEWIKVEFLATG	0.0428
HMKVQLGMNTREVRGIMGKPFSEDTFVEGEKRVDVLHYKEAVRVKTQGFILTTSLRFENDSLTAI	-1.74

Sequence	soluble fraction (log2)
HMDTGPSFATRRQEAFNALTQIAASNKEFMNVAGDVLWKVADFPEAQILAQRWRRIIPPNVLGEA	-0.193
HMEYKYNPADYPYPLNEDIEKVYSAYREKSIGKLEAAVQNLYYTLKQARRDNILSDVKVNEMQQYFLALRN	-0.324
HMRKIKDVLRLKLHAGLSHERVAASLNISKGVVAKYTSLAAAAGLDWPTVERLSEAALERRLV	-0.135
HMSADDLVSRTQAIVAELKDLEGPLLPILHSVQEAFGHVPDEVKPVIAEALNLSRAEVHGVVSFYHDFRAH	-0.112
HMNERIKSLRKALGLTQQEFADKLGISRGNIGAYEVGKNAPSDAVISLIVRIFNTNENWLRTGEGEM	-0.145
HMKINYNEFLRRFLGEKEGDIIEMETGKRIGTHKGYWFHTIGQRKGLGLGGGPWFVIRKDIDENIIYVSHG	-1.06
HMPLSLESVSEGGRNDTAARIAGYLIAKGLNVDFARFFLQSWNTKNKPPLDDTEIDTIVNSIMKTHERKNQ	-0.361
HMATVELELKPEELRAGMILTKDLISGTGMMLLNKGVTLDNVKVEAIQRYYQLDPPLHGVFALVHGK	-0.503
HMKSLDDVISKFRPTGSENKIDFRKRVISEIHAQGFFKIKGSVNHVAKALGVTRYTVYNYLDKLND	-3.23
HMHKYEYESLNHVNVGSNLKYISTHFGQPKLIKKSKYHENLNFAYYLEKKFILTLILEGDRVNAYTITG	0.0565
HMNQIDEATAATITTLNFLNTNSEFKIPVGDTATRPGTPAIGMMRFNSENDKAEIYVADFDGDGNPGWINL	-0.189
HMVADLSGVGDKDIIVDQFIYHEVLPKETIYSIVKSFNVTSEDLNKNNPFLRANGLRIGQVIRIPLKI	-1.08
HMNIQGIFGRNLKQKRLEKGMTQEQLAEKAGVSTDTVKRYESGKYDGIRLDMAWYMANALDTPLQALLPP	0.367
HMIQRLNVNTEVLSTYIRNSNTPIEYLRQKLPNIDKFLKGELEPTFNQVYALSKLINIPTGLLLLKEPIS	-0.995
HMGTTIAMSKLKQVLRWKEEGYSNRKIAQLVGLNKETVNNYISRANADSLSQKELLQLDDFVLDIRLRG	-1.32
HMKRDYELPAFIETYLKKNHVAIDTKSAAMIAEHIGADLSRLISELDKVMISLPDDDRRVTPDVVEREI	-0.00533
HMNSLFPLSLKYLREQANITQAELAQKLDVTQQAVGRWERGQTSPDYETLKRLSVLFNVSVDYLLGV	-0.304
HMDNLSQMQERILEFIIRSKDQSGYTPSLREIGDEVGLKAVSSVKYQLEQLKDAHYISFDANTARAIRVLI	-1.7
HMNYEFLEKIGFSSNEAKVYGTLIKHKVLNGYEIAKLSGVARSLVYEVINRLVAKGAVIRIDGEPNFYKP	-1.8
HMQQELEEMESGNLVRTAIDSLPINQRTAFILSAYEELPIKEIASIMNRSEGAVEQLLQRAKMNLKKKIK	0.347
HMLAERKERDKAELKELILDAAKKILLKNGQEGLSIRKIATTVEYSPATIYLYFKDKDEILHELMEMG	0.317
HMKNSAAKETILAFLKKNGGELFTQMQIIEKFQKMIPAPVLRITLEELLNKGQVEITSKGKYYLSVKGS	-0.587
HMERTVEVVDINDVFSQFLRLYSRERAAGLLSVFKRVEHGLSWQGNPVLLERILSNVFENAIKYAA	-0.0515
HMKGSYTVKSGDNLWSIARKFYGGSGSTWTKIYSANKSTIESTARRYGRSSSDNGHWIYPGTVLVIP	0.0541
HMNQDIIEIGNNIQKIRKKNGISQSVLAEKIDVAGNSIYRMEGATTVMGVDKLINIADALNTSPMDILPAR	0.13
HMSKPTLTDELLTLDLFEEIIKAKENAKGANKRFSLVGFLESKYIVDQEMLPKVNVKVTEYYNLTREN	-0.117
HMKHRFVVGEVLSIGKLQHEITLKTAQGERKFQLDKQDLPASIQDGAKVRAELNEAGRVIDVHPLK	0.355
